Columns and labels:
[1] = target: cynomolgus TNFR2 on cells (cynomolgus); test: flow cytometry on cynomolgus PBMC, antibody at 10 ug/mL, anti-human Fc-PE secondary; negative control
[2] = target: human TNFR2 on cells (human) (UniProt P20333); test: flow cytometry on human PBMC, antibody at 10 ug/mL, anti-human Fc-PE secondary; negative control
Sequence of human TNFR2 on cells (human) (P20333 23-461): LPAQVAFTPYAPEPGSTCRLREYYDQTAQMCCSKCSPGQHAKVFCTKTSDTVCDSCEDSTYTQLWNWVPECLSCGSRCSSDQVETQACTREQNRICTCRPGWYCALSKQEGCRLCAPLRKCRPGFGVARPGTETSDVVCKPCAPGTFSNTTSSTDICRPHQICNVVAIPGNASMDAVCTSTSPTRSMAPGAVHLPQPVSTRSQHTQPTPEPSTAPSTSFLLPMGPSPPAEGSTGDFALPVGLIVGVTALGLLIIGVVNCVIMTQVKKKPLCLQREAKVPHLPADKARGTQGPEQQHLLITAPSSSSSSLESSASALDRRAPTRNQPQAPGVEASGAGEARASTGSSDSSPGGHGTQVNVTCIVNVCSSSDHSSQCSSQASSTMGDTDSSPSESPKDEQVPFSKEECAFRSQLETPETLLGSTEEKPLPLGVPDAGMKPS

- % CD4^+ ab^+ Donor 1 [1]: 0.2%
- % CD4^+ ab^+ Donor 2 [1]: 0.5%
- % CD8^+ ab^+ Donor 1 [1]: 0.2%
- % CD8^+ ab^+ Donor 2 [1]: 0.6%
- % CD4^+ ab^+ Donor 1 [2]: 0.7%
- % CD4^+ ab^+ Donor 2 [2]: 0.7%
- % CD8^+ ab^+ Donor 1 [2]: 0.5%
- % CD8^+ ab^+ Donor 2 [2]: 0.7%
Substance: Isotype Control (Negative Control) (antibody)

— patent publication US20190202925A1
